Results published in article doi:10.1101/2022.09.20.508729, “Loss of the first β-strand of human prion protein generates an aggregation-competent partially “open” form” (bioRxiv, 2022).

Target: the molecule itself
Assay: thioflavin T fluorescence of fibril formation

B1: PrP^23 (residues 23-231 of human PrP) (natural protein)
chain: not shown
notes: also called full-length WT PrP
**Q.** Does B1 bind?
**A.** Result: binds
